# In article PMC10325900, “A conserved motif in the disordered linker of human MLH1 is vital for DNA mismatch repair and its function is diminished by a cancer family mutation” (Nucleic Acids Research, 2023):
# Substitutions are numbered along the chain they refer to. Entries after “also recorded” stand apart in the source; their conditions may differ.
# B1: p.Arg385Tyr: MLH1 variant (protein, UniProt P40692 2-756, looked up, variant R385Y)
# DNA mismatch repair protein …: SFVAGVIRRLDETVVNRIAAGEVIQRPANAIKEMIENCLDAKSTSIQVIVKEGGLKLIQIQDNGTGIRKEDLDIVCERFTTSKLQSFEDLASISTYGFRGEALASISHVAHVTITTKTADGKCAYRASYSDGKLKAPPKPCAGNQGTQITVEDLFYNIATRRKALKNPSEEYGKILEVVGRYSVHNAGISFSVKKQGETVADVRTLPNASTVDNIRSIFGNAVSRELIEIGCEDKTLAFKMNGYISNANYSVKKCIFLLFINHRLVESTSLRKAIETVYAAYLPKNTHPFLYLSLEISPQNVDVNVHPTKHEVHFLHEESILERVQQHIESKLLGSNSSRMYFTQTLLPGLAGPSGEMVKSTTSLTSSSTSGSSDKVYAHQMVYTDSREQKLDAFLQPLSKPLSSQPQAIVTEDKTDISSGRARQQDEEMLELPAPAEVAAKNQSLEGDTTKGTSEMSEKRGPTSSNPRKRHREDSDVEMVEDDSRKEMTAACTPRRRIINLTSVLSLQEEINEQGHEVLREMLHNHSFVGCVNPQWALAQHQTKLYLLNTTKLSEELFYQILIYDFANFGVLRLSEPAPLFDLAMLALDSPESGWTEEDGPKEGLAEYIVEFLKKKAEMLADYFSLEIDEEGNLIGLPLLIDNYVPPLEGLPIFILRLATEVNWDEEKECFESLSKECAMFYSIRKQYISEESTLSGQQSEVPGSIPNSWKWTVEHIVYKALRSHILPPKHFTEDGNILQLANLPDLYKVFERC
# B2: p.Tyr379Cys: human MLH1 missense variant, c.1136A>G (protein, UniProt P40692 2-756, looked up, variant Y379C)
# DNA mismatch repair protein …: B1 DNA mismatch repair protein … with Y378C, Y384R
# B3: p.Arg385Ala: MLH1 control variant (protein, UniProt P40692 2-756, looked up, variant R385A)
# DNA mismatch repair protein …: B1 DNA mismatch repair protein … with Y384A
# B4: p.Arg385Glu: MLH1 control variant (protein, UniProt P40692 2-756, looked up, variant R385E)
# DNA mismatch repair protein …: B1 DNA mismatch repair protein … with Y384E
# B5: p.Val384Asp: human MLH1 missense variant, c.1151T>A (protein, UniProt P40692 2-756, looked up, variant V384D)
# DNA mismatch repair protein …: B1 DNA mismatch repair protein … with V383D, Y384R
# B6: p.Arg385His: human MLH1 missense variant, c.1154G>A (protein, UniProt P40692 2-756, looked up, variant R385H)
# DNA mismatch repair protein …: B1 DNA mismatch repair protein … with Y384H
# Test system: G-T mismatch in a test plasmid
# Assay: MMR activity of MLH1 variants (MLH1-PMS2 expressed in HEK293T cells)
# Assay type: biochemical, human
# Conditions: >3 independent experiments; for DNA mismatch repair activity of MLH1 variant (in words): variant MLH1 + PMS2 transfected in HEK293T, relative to wildtype, 37°C, 15 min; for effect of second p.Arg385 alteration on the MMR defect of p.Tyr750Arg: double variants (Figure 6D)
# Method: Sequence variants of the MLH1 expression vector were generated using the Q5 site directed mutagenesis system (New England Biolabs, Ipswich, MA, USA) with the appropriate primers (Supplementary Table S1).
# Mismatch repair activity was assessed as described in detail before ([79],[81]) (Supplementary Figure S3). […] Mismatched DNA plasmid substrate (Supplementary Figure S3) prepared according to previously published procedures ([81–83]) was added, and reactions in a final volume of 25 μl were incubated at 37°C for 15 min. Repair efficiency was scored by purifying the mismatched DNA plasmid from the reaction and assessing the fraction of homoduplex sequence by restriction digestion of the mismatched site using EcoRV. The substrate was additionally linearized with AseI.
# Figure 2. Expression and DNA mismatch repair activity of human and artificial ConMot variants. […] As a negative control, one sample was only transfected with an EGFP. After 48 h, native whole cell protein extracts were prepared. Expression was assessed by SDS-PAGE and western blotting. (A) Representative western blot of MLH1 wildtype and variant expressions. Average expression levels of MLH1 of > 5 independent transfections were determined and are given in the bar diagram below. (B) The extracts of the transfections were used to assess the DNA mismatch repair activities of the variant MLH1 proteins in comparison with wildtype (WT) MLH1-PMS2 as detailed in Materials and Methods and as shown in Supplementary Figure S3. The EGFP-transfected extract sample served as negative control. Representative agarose gels are shown in the top panel.
# Figure 3. Analysis of the relevance of ConMot core and surrounding sequences. MLH1 proteins containing either the wildtype human ConMot motif sequence or variants were directly compared concerning expression and MMR activity. (A) Comparison of the ConMot variants used: the core-scramble variant sequence, the full-scramble variant sequence and an animal-plant hybrid that contains the ConMot consensus sequence of plants as it exists, for example, in walnut and mungo bean (Vigna radiata and Juglans regia). (B) Comparison of conservation in the animal versus plant ConMot in WebLogo representation. Specific differences in conservation within the sequences flanking the core MVRTD sequence are marked by red arrows above the animal sequence. (C) Western blot of the expression of the different MLH1-ConMot wildtype (WT) and the variants shown in A after transfection in HEK293T cells; negative control: transfection of EGFP. (D) MMR activities were assessed in direct comparison to negative control and wildtype human MLH1 as in Figure 2B. Average activities and standard deviations were calculated from >3 independent experiments.
# Figure 6. The MMR defect of p.Tyr750Arg is partly compensated by p.Arg385Tyr. […] (B) The side chain of the highly conserved Arg385 is predicted to be in proximity to the side chain of the highly conserved Tyr750 residue. (C) MLH1-PMS2-deficient HEK293T cells were co-transfected with the indicated single- and double variants of MLH1 and PMS2. Protein extracts were prepared, separated by SDS-PAGE, blotted and probed for MLH1 protein expression. (D) MMR assays were performed to test DNA mismatch repair activity as detailed in Materials and Methods. One representative agarose gel is shown, and average repair values in comparison to wildtype and standard deviations of >3 independent experiments are shown in a bar diagram. A two-sided t-test was performed for testing significance of the difference in repair activity of p.Tyr750Arg in comparison to the double variant p.Arg385Tyr + Tyr750Arg.
# Mismatched DNA plasmid substrate and principle of MMR assay.
# The MMR assay is performed using as substrate a modified 2 kbp derivative of the pUC vector (pUC
# CPDC Bb v) originally generated by Wang and Hays and further modified by Plotz et al. and Gonzáles-
# Acosta et al . […]
Molecule,DNA mismatch repair activity of MLH1 variant (in words),further results
p.Arg385Pro: human MLH1 missense variant in the MVRTD motif,a defect similarly strong as the core-scramble variant; also recorded: most pronounced effect; also recorded: mismatch repair defect,DNA mismatch repair activity of MLH1 variant (in words) (listed as proline substitution of Arg385): loss of mismatch repair activity
ΔConMot: deletion variant in which the conserved ConMot sequence comprising 20 residues was removed,fully abrogated mismatch repair,DNA mismatch repair activity of MLH1 variant (in words) (listed as deletion): complete loss of MMR activity; DNA mismatch repair activity of MLH1 variant (in words) (listed as deletion of the ConMot): fully deficient in MMR
B1,well tolerated,–
B2,did not find a catalytic defect,–
B3,a defect similarly strong as the core-scramble variant,effect of second p.Arg385 alteration on the MMR defect of p.Tyr750Arg: additionally aggravated the defect
B4,a defect similarly strong as the core-scramble variant,effect of second p.Arg385 alteration on the MMR defect of p.Tyr750Arg: additionally aggravated the defect
B5,no detectable impairment of MMR,–
B6,tolerated; also recorded: did not affect catalytic activity,–
